In the Human Domainome abundance scans (Beltran et al. 2025):
± gives the uncertainty stated by the source.

B1: Tumor protein 63, residues 545 to 610; numbered along this chain, Q9H3D4 (parent)
chain: TDCSIVSFLARLGCSSCLDYFTTQGLTTIYQIEHYSMDDLASLKIPEQFRHAIWKGILDHRQLHEF

Variants of: B1
Assay: abundance fitness (aPCA) (normalised: wild type 0, dead -1); higher = more abundant; growth selection in yeast, the domain comes from the species named
Settings: Homo sapiens

Variant	abundance fitness
TDCSIVSELARLGCSSCLDYFTTQGLTTIYQIEHYSMDDLASLKIPEQFRHAIWKGILDHRQLHEF [F8E]	-0.711 ± 0.056
TDCSIVSKLARLGCSSCLDYFTTQGLTTIYQIEHYSMDDLASLKIPEQFRHAIWKGILDHRQLHEF [F8K]	-0.961 ± 0.19
TDCSIVSPLARLGCSSCLDYFTTQGLTTIYQIEHYSMDDLASLKIPEQFRHAIWKGILDHRQLHEF [F8P]	-0.938 ± 0.091
TDCSIVSFLARLGCSSCLDYFTTQGLTTIYQIEHYSMDDLASLKIPDQFRHAIWKGILDHRQLHEF [E47D]	0.012 ± 0.038
TDCSIVSFLFRLGCSSCLDYFTTQGLTTIYQIEHYSMDDLASLKIPEQFRHAIWKGILDHRQLHEF [A10F]	-0.167 ± 0.028
TDCSIVSFLARLGCSSCLDYFTTQGLTTIYQIEHYSMDDLFSLKIPEQFRHAIWKGILDHRQLHEF [A41F]	-0.1 ± 0.034
TDCSIVSFLARLGCSSCLDYFTTQGLTTIYQIEHYSMDDLISLKIPEQFRHAIWKGILDHRQLHEF [A41I]	0.003 ± 0.041
TDCSIVYFLARLGCSSCLDYFTTQGLTTIYQIEHYSMDDLASLKIPEQFRHAIWKGILDHRQLHEF [S7Y]	-0.053 ± 0.041
TDCSIVMFLARLGCSSCLDYFTTQGLTTIYQIEHYSMDDLASLKIPEQFRHAIWKGILDHRQLHEF [S7M]	-0.108 ± 0.036
TDCSIVDFLARLGCSSCLDYFTTQGLTTIYQIEHYSMDDLASLKIPEQFRHAIWKGILDHRQLHEF [S7D]	-0.056 ± 0.047
TDCSIVGFLARLGCSSCLDYFTTQGLTTIYQIEHYSMDDLASLKIPEQFRHAIWKGILDHRQLHEF [S7G]	-0.045 ± 0.025
TDCSIVSFLARLGCSSCLDYFTAQGLTTIYQIEHYSMDDLASLKIPEQFRHAIWKGILDHRQLHEF [T23A]	-0.023 ± 0.028
TDCSRVSFLARLGCSSCLDYFTTQGLTTIYQIEHYSMDDLASLKIPEQFRHAIWKGILDHRQLHEF [I5R]	-1.01 ± 0.054
TDCSIVSFLARLGCSSCLDYFTTQGLTTIYQIEHYSMDDLASLKIPEQFRHAIWKGITDHRQLHEF [L58T]	0.002 ± 0.027
TDCSIVSFLARLGCSSCLDYFTTQGLTTIYQIEHYSMDDLASLKIPEQFRHAIWKGIADHRQLHEF [L58A]	-0.01 ± 0.022
TDCSIVSFLARLGCSSCLDYFTTQGLTTIYQIEHYSMDDLAELKIPEQFRHAIWKGILDHRQLHEF [S42E]	0.008 ± 0.026
TDCSIVSFLARLGCSSCLDYFTTQGLTTIYQIEHYSMDDLALLKIPEQFRHAIWKGILDHRQLHEF [S42L]	-0.01 ± 0.021
TDCSIVSFLARLGCSSCLDYFTTQGLTTIYQIEHYSMDDLAILKIPEQFRHAIWKGILDHRQLHEF [S42I]	0.004 ± 0.034
TDCSIVSFLARLGCSSCLDYDTTQGLTTIYQIEHYSMDDLASLKIPEQFRHAIWKGILDHRQLHEF [F21D]	-1.03 ± 0.12
TDCSIVSFLARLGCSSCLDYFTTQHLTTIYQIEHYSMDDLASLKIPEQFRHAIWKGILDHRQLHEF [G25H]	-0.099 ± 0.053
TDCSIVSFLARLGCSSCLDYFTTQGLTTIYQIEHYSMDDLASLKKPEQFRHAIWKGILDHRQLHEF [I45K]	-0.72 ± 0.078

Variant	abundance fitness
TDCSIVSFLARLGCSSCLDYFTTQGLTTIYQIEHYSMDDLASLKIPEQFRHAIWKGILDFRQLHEF [H60F]	-0.003 ± 0.045
TDCSIVSFLARLGCSSCLDYFTTQGLTTIYQIEHYSMDDLASLKIPEQFRHAIWKGILDQRQLHEF [H60Q]	-0.02 ± 0.059
TDCSIVSFLARLGCSSCLDYFTTQGLTTIYQIEHYSMDDLASLKIPEQFRHAIWKGILDVRQLHEF [H60V]	0 ± 0.028
TDCSIVSFLARLGCSSCLDYFTTQGLTTIYQIEHYSMDDLASLKIPEQFRHGIWKGILDHRQLHEF [A52G]	-0.086 ± 0.021
TDCSIVSFLARLGCSSCLDYFTTQGLTTIYQIEHYSMDDLASLKIPEQFRHEIWKGILDHRQLHEF [A52E]	-0.024 ± 0.029
TDCSIVSFLARLGCSSCLDYFTTQGLTTIMQIEHYSMDDLASLKIPEQFRHAIWKGILDHRQLHEF [Y30M]	-0.025 ± 0.043
TDCSIVSFLAKLGCSSCLDYFTTQGLTTIYQIEHYSMDDLASLKIPEQFRHAIWKGILDHRQLHEF [R11K]	-0.02 ± 0.037
TDCSIVSFLACLGCSSCLDYFTTQGLTTIYQIEHYSMDDLASLKIPEQFRHAIWKGILDHRQLHEF [R11C]	-0.155 ± 0.035
TDCSIVSFLATLGCSSCLDYFTTQGLTTIYQIEHYSMDDLASLKIPEQFRHAIWKGILDHRQLHEF [R11T]	-0.023 ± 0.03
TDCSIVSFLARLGCSSCLDYFTTQGLTTIYQIEHYSMDDTASLKIPEQFRHAIWKGILDHRQLHEF [L40T]	-0.933 ± 0.078
TDCSIVSFLARLGCSSCLDYFTTQGLTTIYQIEHYSMDDWASLKIPEQFRHAIWKGILDHRQLHEF [L40W]	-0.764 ± 0.047
TDCSIVSFLARLDCSSCLDYFTTQGLTTIYQIEHYSMDDLASLKIPEQFRHAIWKGILDHRQLHEF [G13D]	0.004 ± 0.047
TDCSIVSFLARLGCSSCLDMFTTQGLTTIYQIEHYSMDDLASLKIPEQFRHAIWKGILDHRQLHEF [Y20M]	-0.02 ± 0.027
TDCSIVSFLARLGCSSCLDKFTTQGLTTIYQIEHYSMDDLASLKIPEQFRHAIWKGILDHRQLHEF [Y20K]	-0.02 ± 0.024
TDCSIVSFLARLGCSSCLDYFTTQGATTIYQIEHYSMDDLASLKIPEQFRHAIWKGILDHRQLHEF [L26A]	-0.271 ± 0.029
TDCSIVSFLARLGCSSCLDYFTTQGRTTIYQIEHYSMDDLASLKIPEQFRHAIWKGILDHRQLHEF [L26R]	-0.436 ± 0.022
TDSSIVSFLARLGCSSCLDYFTTQGLTTIYQIEHYSMDDLASLKIPEQFRHAIWKGILDHRQLHEF [C3S]	-0.011 ± 0.022
TDISIVSFLARLGCSSCLDYFTTQGLTTIYQIEHYSMDDLASLKIPEQFRHAIWKGILDHRQLHEF [C3I]	-0.029 ± 0.031
TDCSIVSFLARLGCSSCLDYFTTQGLTTIYQIEHYSMDDLASLKIPEEFRHAIWKGILDHRQLHEF [Q48E]	0.035 ± 0.033
TDCSIVSFLARLGCSSCLDYFTTQGLTTIYQIEHYSMDDLASLKIPEWFRHAIWKGILDHRQLHEF [Q48W]	-0.203 ± 0.037
TDCSIVSFLARLGCSSCLDYFTTQGLTTIYQIEHYSMDDLASLKIPEVFRHAIWKGILDHRQLHEF [Q48V]	-0.027 ± 0.022

Variant	abundance fitness
TDCSIVSFLARLGCSSCLDYFTTQGLTTIYQIEHYSMDDLASLKIPESFRHAIWKGILDHRQLHEF [Q48S]	-0.038 ± 0.025
TDCSIVSFLARLGCSSCLDYFTTQGLTVIYQIEHYSMDDLASLKIPEQFRHAIWKGILDHRQLHEF [T28V]	-0.1 ± 0.023
TDCSIVSFLARLGCSSCLDYFTTQGLGTIYQIEHYSMDDLASLKIPEQFRHAIWKGILDHRQLHEF [T27G]	-0.123 ± 0.018
TDCSIVSFLARLGCSSCRDYFTTQGLTTIYQIEHYSMDDLASLKIPEQFRHAIWKGILDHRQLHEF [L18R]	-0.072 ± 0.027
TDCSIVSFLARLGCSSCPDYFTTQGLTTIYQIEHYSMDDLASLKIPEQFRHAIWKGILDHRQLHEF [L18P]	-0.551 ± 0.034
TDCSIVSFLARLGCSSCLDYFTTQGLTTIYQIEHYSMDDLASLKIPEQFRHAIWKGILCHRQLHEF [D59C]	-0.058 ± 0.037
TDCSIFSFLARLGCSSCLDYFTTQGLTTIYQIEHYSMDDLASLKIPEQFRHAIWKGILDHRQLHEF [V6F]	-0.06 ± 0.036
TDCSIASFLARLGCSSCLDYFTTQGLTTIYQIEHYSMDDLASLKIPEQFRHAIWKGILDHRQLHEF [V6A]	0.028 ± 0.025
TDCSIVSFLARLGCSSCLDYFTTQGLTTIYQIEHYSMDDLASLKIPEQFRHAIWKGILDHRQLTEF [H64T]	0.011 ± 0.035
TDCSIVSFLARLGCSSCLDYFTTQGLTTIYQIEHYSMDDLASLKIPEQFRHAIWKGILDHRQLHHF [E65H]	-0.072 ± 0.087
TDCSIVSFLARLGCSSCLDYFTTQGLTTIYQIEHYVMDDLASLKIPEQFRHAIWKGILDHRQLHEF [S36V]	-0.09 ± 0.025
TDCSIVSFLARLGCSSCLDYFTTQGLTTIYQIEHYMMDDLASLKIPEQFRHAIWKGILDHRQLHEF [S36M]	-0.096 ± 0.05
PDCSIVSFLARLGCSSCLDYFTTQGLTTIYQIEHYSMDDLASLKIPEQFRHAIWKGILDHRQLHEF [T1P]	-0.458 ± 0.16
TDCSIVSFLARLGCSICLDYFTTQGLTTIYQIEHYSMDDLASLKIPEQFRHAIWKGILDHRQLHEF [S16I]	-0.089 ± 0.042
TDCSIVSFLARLGCSYCLDYFTTQGLTTIYQIEHYSMDDLASLKIPEQFRHAIWKGILDHRQLHEF [S16Y]	-0.156 ± 0.038
TDCSIVSFLARLGWSSCLDYFTTQGLTTIYQIEHYSMDDLASLKIPEQFRHAIWKGILDHRQLHEF [C14W]	-0.61 ± 0.043
TDCSIVSFLARLGCSSCLDYFTTQGLTTIYQIEHYSMPDLASLKIPEQFRHAIWKGILDHRQLHEF [D38P]	-0.105 ± 0.051
TDCSIVSFLARLGCSSCLDYFTTQGLTTIYQIEHYSMDDLASLKIPEQFRHAIWKGILDHDQLHEF [R61D]	-0.121 ± 0.075
TDCSIVSFLARLGCSSCLDYFTTQGLTTIYQIEHYSMDDLASLKIDEQFRHAIWKGILDHRQLHEF [P46D]	-0.283 ± 0.054
TDCSIVSFLARLGCSSCLDYFLTQGLTTIYQIEHYSMDDLASLKIPEQFRHAIWKGILDHRQLHEF [T22L]	-0.021 ± 0.023
TDCSIVSFLARLGCSSCLDYFTTQGLTTIYQIEHYSMDDLASLKIPEQFRHAISKGILDHRQLHEF [W54S]	-0.055 ± 0.097

Variant	abundance fitness
TDCSIVSFLARLGCSSCLDYFTTQGLTTIYQIEHYSMDDLASLKIPEQFRHAIWFGILDHRQLHEF [K55F]	-0.212 ± 0.049
TDCSIVSFLARLGCSSCLDYFTTQGLTTIYQIEHYSMDDLASLCIPEQFRHAIWKGILDHRQLHEF [K44C]	-0.052 ± 0.026
TDCSIVSFLARLGCSSCLDYFTTQGLTTIYQIEHYSMDDLASLGIPEQFRHAIWKGILDHRQLHEF [K44G]	0.013 ± 0.022
TDCSIVSFLARLGCSSCLDYFTTQGLTTQYQIEHYSMDDLASLKIPEQFRHAIWKGILDHRQLHEF [I29Q]	-0.355 ± 0.04
TDCSIVSFLARLGCSSCLDYFTTQGLTTIYQIEHYSMDDLASLKIPEQFRHACWKGILDHRQLHEF [I53C]	-0.528 ± 0.024
TDCSIVSFLARLGCSSCLDYFTTQGLTTIYQIEHYSMDDLASLKIPEQFRHAWWKGILDHRQLHEF [I53W]	-0.62 ± 0.081
TDCSIVSFLARLGCSSCLDYFTTQGLTTIYQIEHYSMDDLASLKIPEQFRHAEWKGILDHRQLHEF [I53E]	-0.893 ± 0.063
TDCSIVSFLARLGCSSCLDYFTTQGLTTIYQIEHYSMDHLASLKIPEQFRHAIWKGILDHRQLHEF [D39H]	-0.163 ± 0.049
TDCSIVSFLARLGCSSCLDYFTTQGLTTIYQIEHYSMDQLASLKIPEQFRHAIWKGILDHRQLHEF [D39Q]	-0.032 ± 0.044
TDCSIVSFLARLGCSSCLDYFTTQGLTTIYQIEHYSEDDLASLKIPEQFRHAIWKGILDHRQLHEF [M37E]	-0.014 ± 0.039
TDCSIVSFLARLGCSSCLDYFTTQGLTTIYQIEHYSADDLASLKIPEQFRHAIWKGILDHRQLHEF [M37A]	-0.063 ± 0.025
TDCSIVSFLARLGCSSCLDYFTTQGLTTIYQITHYSMDDLASLKIPEQFRHAIWKGILDHRQLHEF [E33T]	-0.047 ± 0.045
TDCSIVSFLARLGCSSNLDYFTTQGLTTIYQIEHYSMDDLASLKIPEQFRHAIWKGILDHRQLHEF [C17N]	-0.359 ± 0.043
TDCSIVSFLARLGCSSCLVYFTTQGLTTIYQIEHYSMDDLASLKIPEQFRHAIWKGILDHRQLHEF [D19V]	-0.081 ± 0.029
TDCSIVSFLARLGCSSCLAYFTTQGLTTIYQIEHYSMDDLASLKIPEQFRHAIWKGILDHRQLHEF [D19A]	-0.05 ± 0.027
TKCSIVSFLARLGCSSCLDYFTTQGLTTIYQIEHYSMDDLASLKIPEQFRHAIWKGILDHRQLHEF [D2K]	-0.099 ± 0.037
TECSIVSFLARLGCSSCLDYFTTQGLTTIYQIEHYSMDDLASLKIPEQFRHAIWKGILDHRQLHEF [D2E]	-0.079 ± 0.028
TDCSIVSFLARLGCVSCLDYFTTQGLTTIYQIEHYSMDDLASLKIPEQFRHAIWKGILDHRQLHEF [S15V]	-0.077 ± 0.031
TDCSIVSFLARLGCWSCLDYFTTQGLTTIYQIEHYSMDDLASLKIPEQFRHAIWKGILDHRQLHEF [S15W]	-0.179 ± 0.03
